Experimental data published in the RNAGym collection of RNA variant scans (doi:10.1073/pnas.2313332121).
Fewer inactive variants are shown than the library holds.

B1: TPR 5TU (parent)
chain: GGAUCUUCUCGAUCUAACAAAAAAGACAAAUCUGCCACAAAGCUUGAGAGCAUCUUCGGAUGCAGAGGCGGCAGCCUUCGGUGGCGCGAUAGCGCCAACGUUCUCAACUAUGACACGCAAAACGCGUGCUCCGUUGAAUGGAGUUUAUCAUG

Variants of: B1
Assay: polymerase ribozyme fitness, log enrichment relative to wild type (log ratio); higher = more active; in vitro selection for triplet polymerase activity
Summary of the method: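 One round of in vitro selection, in triplicate, was applied to PCR-built, transcribed mutant libraries of each subunit of a heterodimeric triplet polymerase ribozyme. The steps were annealing with a biotinylated primer, partner subunit and triplets, incubation frozen at −7 °C, gel excision of extended constructs, streptavidin-bead capture and RT-PCR. Fitness is the logarithm, base 2, of genotype enrichment over wild-type enrichment from inverse-variance-weighted replicate averages of Illumina-sequenced inputs and outputs, keeping genotypes with ≥10 input reads and ≥1 read per output.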

Variant	polymerase ribozyme fitness (log ratio)
A49C G65C G88U C96A	-4.03
G48A A49C U53A G100A	≤ -4.2
A49C U55A G143C	≤ -4.2
G48A A113G A147G G152C	≤ -4.2
G48U C93G	-3.47
A49C C79U C85U C132A U134A	≤ -4.2
A49C U55A A66U C72A C85U	≤ -4.2
G48A A52U G86U	≤ -4.2
G48C C57A C75G G83U A106G A107G A113U	≤ -4.2
G48A C57U G83C U101C	-2.63
G48A G83C	-1.78
G48C C57G G67U C85A C93A C96U G140C	≤ -4.2
G48A G83U U134C	-1.42
A49C C54U U55A A91U C108U G152A	≤ -4.2
A49G A60G C85U	-0.602
G48U A73G A122C U146C	-0.965
A49G C96U	-0.233
A49G C96G	-1.61
G48C C54U G58C C87U C123U	-1.05
A49C G68C C85G A115G A119G G141U A147C	≤ -4.2
A49C G68C G94U A97U C114G G126A U127G	≤ -4.2

Variant	polymerase ribozyme fitness (log ratio)
G48C U145G	-0.0374
A49G G50A U53A U77G C79U G92U U109G A122U U134C U135C C149A A150U	≤ -4.2
G48U A98G	-0.0311
A49C A52C A66G G86C A119G	≤ -4.2
G48C U55A A122U	0.121
G48A C57A U127A A142G G143A	≤ -4.2
G48A G50C	-3.83
A49C G50C G81C A110U	≤ -4.2
G48U A106G	-1.48
A49G C51U C95G A137G U144A	≤ -4.2
G48A G62A C96A C132G U134G A147C	≤ -4.2
A49C C103G A110C	≤ -4.2
A49C C69G C85A A120C C125U	≤ -4.2
A49G A52C G59A G84A G94U C103U	≤ -4.2
G48C A49C A60G U61A A66G C87A	≤ -4.2
A49G G70A G140U	≤ -4.2
A49C G59A A60G A106G	≤ -4.2
A49G G81C A91G A98U	-2.95
G48A U61A A91C C131A U139C	≤ -4.2
A49G A52C C95U C96A C99A	≤ -4.2
G48C G59C A73G C76U C96U U101C	-3.78

Variant	polymerase ribozyme fitness (log ratio)
A49C A52C C57A A91U C96G G112A G117U G143C A150G	≤ -4.2
A49C U109G G152U	-4.18
A49C G86A C129A C132U U148A G152U	≤ -4.2
G48A C108U	≤ -4.2
G48C A115G G133A	-3.85
A49G G71A C93G	≤ -4.2
A49C C87A C132A	≤ -4.2
A49C C103A	-3.96
G48C G84A A121G U134A G143A	-3.91
G48C C63U A142G	-1.03
A49C C79G G94C	≤ -4.2
A49C G50U G71C G94C G136A U144C	≤ -4.2
G48C U53C C87U U145C	-2.69
A49C C51G	-4.14
A49G G50A C54A A66G U82A C108U C125A	≤ -4.2
G48A C85A C123U U134C	-1.46
G48A C51U	-1.05
G48C G70A G88U C96G	≤ -4.2
G48C C85U G94U C96U U144C	-3.25
A49C C76A	≤ -4.2
G48C G84C C85A A110U C125A	≤ -4.2

Variant	polymerase ribozyme fitness (log ratio)
A49C A52C A91U U130A U134A U135C A142G	≤ -4.2
A49G A73G	-0.67
A49C U53A G81C A98U G100A C103A	≤ -4.2
A49C U53A C54A C87U U102C	≤ -4.2
G48A C87U	-0.447
A49G C95U	-0.995
A49G C93G U102G A106G	≤ -4.2
A49C G94C U104G	≤ -4.2
G48A C96U A98G	-0.496
G48C A49G A113G	≤ -4.2
G48A C57A G92A	-3.32
G48A C54U G94C	-1.21
G48A G86A A89C G94A U151G	≤ -4.2
G48C G143U	-2.25
A49C A52C C96A U102G U127C U148A	≤ -4.2
G48A C85G A98U C99U	-3.36
G48A A52U C75U A91G	≤ -4.2
G48A A52C C85U	-2.93
G48C A49C C63U G86A C149A	≤ -4.2
A49G G83U	-1.22
